According to paper PMC3942486, “The Ansamycin Antibiotic, Rifamycin SV, Inhibits BCL6 Transcriptional Repression and Forms a Complex with the BCL6-BTB/POZ Domain” (PLoS ONE, 2014):
Each block holds one binder with its values, some of them ahead of it.

Molecular target: BCL6-POZ domain (residues 7 to 128 of human BCL6, C8Q, C67R, C84N) (human, UniProt P41182 7-128, cysteine8 mutated to glutamine | cysteine67 mutated to arginine | cysteine84 …)
Assay: fluorescence polarisation; fixed concentration of BODIPY TMR-labelled SMRT peptide, increasing concentration of BCL6-POZ domain; PBS, 0.05% (v/v) Triton X-100, 0.1 mg/mL BSA; room temperature; triplicate; one-site binding (hyperbola) fit
Conditions: both partners purified

Kd: 11 µM
B1: 1-naphthyl-SMRT peptide, labelled with BODIPY TMR (peptide)
chain: LVATVKEAGRSIXEIPR
modifications: 1-naphthylalanine in place of histidine1426; BODIPY TMR dye coupled via the amino-terminal cysteine

Kd: 154 µM
B2: 2-naphthyl-SMRT peptide, labelled with BODIPY TMR (peptide)
chain: LVATVKEAGRSIXEIPR
modifications: 2-naphthylalanine in place of histidine1426; BODIPY TMR dye coupled via the amino-terminal cysteine
